The values below come from paper PMC6953809.

For experiment [1], the target named is EGFP-rGR as used in the number and brightness assay (Fig 7) and in the ccN&B with alternative ligands (Fig 9) (rat) (UniProt P06536). The experiment can be described thus: cross-correlation number and brightness assay (ccN&B); living 3617 cells +tetracycline, transiently transfected, nuclear Bcc relative to 100 nM corticosterone (100%); 100 nM of alternative ligands (cortisol, prednisolone, dexamethasone, aldosterone) or dexamethasone 10 nM + aldosterone 10 nM, aldosterone 10 nM + RU486 1 μM, corticosterone 10 nM + RU486 1 μM.

Experiment [2] shares this target. The experiment can be described thus: number and brightness assay (N&B); living 3617 cells, transiently transfected, nucleoplasm, 100 nM corticosterone; average molecular brightness (ε) in one channel with different co-expressed partners.

Regarding “mCherry-tagged rat mineralocorticoid receptor, transiently expressed in 3617 cells (from UniProt P22199 1-981)”, in experiment [1], the Bcc value with 100 nM cortisol, percent of the Bcc value with corticosterone was determined as 70% and the Bcc value with 100 nM prednisolone, percent of the Bcc value with corticosterone came out at 60%.
Regarding “EGFP-rGR as used in the number and brightness assay (Fig 7) and in the ccN&B with alternative ligands (Fig 9) (from UniProt P06536 1-795) (receptor)”, in experiment [2], the average molecular brightness (ε) of EGFP-rGR paired with mCherry-rGR, percent of the +mCherry reference was found to be 63.3% and the stoichiometry N is 2.

What is called stoichiometry N is the number of molecules, sites or subunits per partner or assembly.
